Measurements published in the supplement of paper PMC10724198.
± gives the standard deviation of the averaged measurements.

Columns and labels:
Experiment in all cases: protein stability index of tFT-peptide fusion (C-terminal peptide) (PSI (0-1 scale)); higher = more stable (slower turnover)
Saccharomyces cerevisiae [1] = conditions: temperature: 30 C
Method: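 MPS profiling in S. cerevisiae of the yeast C-terminome library: the last 12 aa of each annotated ORF are fused to the C-terminus of a sfGFP-mCherry timer, after a GGGS linker. Cells are FACS-sorted into 8 mCherry/sfGFP bins and deep-sequenced. PSI runs from 0 (unstable) to 1 (stable); wild type and das1Δ backgrounds, two technical replicates each.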

Saccharomyces cerevisiae [2] = system: Saccharomyces cerevisiae
Method: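 MPS profiling in S. cerevisiae of the tFT-X12 degron library: putative degron peptides plus stable controls, 12 aa, fused to the C-terminus of a sfGFP-mCherry timer. Cells are FACS-sorted into 8 mCherry/sfGFP bins and deep-sequenced. PSI runs from 0 (unstable) to 1 (stable). Backgrounds are wild type, das1Δ and doa10Δ at 30 °C, and wild type, das1Δ, cdc34-1 and cdc53-1 at 37 °C; 2-3 technical replicates each.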

Saccharomyces cerevisiae [3] = conditions: genetic background: wild type; temperature: 30 C
[4] = genetic background: das1 deletion
[5] = genetic background: cdc34-1, temperature: 37 C
[6] = genetic background: cdc53-1, temperature: 37 C
[7] = genetic background: das1 deletion, temperature: 30 C
[8] = genetic background: das1 deletion, temperature: 37 C
[9] = genetic background: doa10 deletion, temperature: 30 C
[10] = genetic background: wild type, temperature: 30 C
[11] = genetic background: wild type, temperature: 37 C

Row | Sequence | protein stability index (Saccharomyces cerevisiae [1]; [4]) | protein stability index (Saccharomyces cerevisiae [1]; genetic background: wild type) | also measured
1 | SENRFELAYFTS [YLR317W C-terminal 12 aa] | 0.728 ± 0.027 | 0.6901 ± 0.0013 | –
2 | SPFIPKKRKPRS [SEN1 C-terminal 12 aa] | 0.6983 ± 0.0065 | 0.704 ± 0.036 | –
3 | LIQFLEPSKRVA [YPT35 C-terminal 12 aa] | 0.72 ± 0.037 | 0.722 ± 0.042 | –
4 | SSSSNFLEESSS [YER148W-A C-terminal 12 aa] | 0.7024 ± 0.00079 | 0.6861 ± 0.006 | –
5 | QPLLPCFFRRAV [YER147C-A C-terminal 12 aa] | 0.691 ± 0.011 | 0.4308 ± 0.0042 | –
6 | PFNRNVSDKLKK [VAC14 C-terminal 12 aa] | 0.733 ± 0.038 | 0.713 ± 0.063 | –
7 | NTLLSPSRKDNS [MVB12 C-terminal 12 aa] | 0.705 ± 0.0098 | 0.698 ± 0.034 | –
8 | AAISFKEAARTD [HYP2 C-terminal 12 aa] | 0.725 ± 0.019 | 0.725 ± 0.07 | –
9 | KKKRNKNKKAGK [ETP1 C-terminal 12 aa] | 0.691 ± 0.023 | 0.698 ± 0.014 | –
10 | SRSGPDSTNIKL [MPP10 C-terminal 12 aa] | 0.688 ± 0.011 | 0.667 ± 0.0034 | –
11 | INDKYKSNRTDS [ATG2 C-terminal 12 aa] | 0.697 ± 0.022 | 0.7162 ± 0.00084 | –
12 | EQNLEALAKSFF [BEM4 C-terminal 12 aa] | 0.734 ± 0.023 | 0.697 ± 0.029 | –
13 | QLLNLLVKISQL [RFC2 C-terminal 12 aa] | 0.677 ± 0.032 | 0.18 ± 0.0089 | –
14 | KAASLSLKSTKY [PRP5 C-terminal 12 aa] | 0.71161 ± 0.00019 | 0.673 ± 0.013 | –
15 | LKKQIFEKVQKE [MET4 C-terminal 12 aa] | 0.701 ± 0.02 | 0.635 ± 0.022 | –
16 | NQVKLNQLLVGN [CSE1 C-terminal 12 aa] | 0.627 ± 0.038 | 0.641 ± 0.0068 | –
17 | FSNLLWFDQNFA [STB4 C-terminal 12 aa] | 0.742 ± 0.014 | 0.786 ± 0.079 | –
18 | HLENELKDQQEL [ATM1 C-terminal 12 aa] | 0.718 ± 0.0099 | 0.715 ± 0.017 | –
19 | RKAVDALRSLTN [ACK1 C-terminal 12 aa] | 0.719 ± 0.051 | 0.722 ± 0.045 | –
20 | PEEETNWFSGHG [PRP31 C-terminal 12 aa] | 0.745 ± 0.032 | 0.73 ± 0.025 | –

Row | Sequence | protein stability index (Saccharomyces cerevisiae [1]; [4]) | protein stability index (Saccharomyces cerevisiae [1]; genetic background: wild type) | also measured
21 | EHDKSPLSRKRQ [SFI1 C-terminal 12 aa] | 0.708 ± 0.015 | 0.703 ± 0.035 | –
22 | GHSHKHKGHQKK [KRI1 C-terminal 12 aa] | 0.673 ± 0.008 | 0.667 ± 0.018 | –
23 | WLDCTTLPNYQG [KAP122 C-terminal 12 aa] | 0.7222 ± 0.0061 | 0.707 ± 0.028 | –
24 | MIENEKQNPAKQ [OSH6 C-terminal 12 aa] | 0.693 ± 0.0075 | 0.692 ± 0.028 | –
25 | RVDGKIVVTPQI [RPC53 C-terminal 12 aa] | 0.7011 ± 0.0011 | 0.694 ± 0.012 | –
26 | SHPSFKQLLIQK [MLO1 C-terminal 12 aa] | 0.677 ± 0.031 | 0.73 ± 0.025 | –
27 | RRSKKWYSFIFN [SCO2 C-terminal 12 aa] | 0.75 ± 0.018 | 0.731 ± 0.098 | –
28 | YCLFEKPTETTN [ALG9 C-terminal 12 aa] | 0.736 ± 0.029 | 0.695 ± 0.061 | –
29 | MNKKHHKPIPFD [RRD2 C-terminal 12 aa] | 0.762 ± 0.027 | 0.697 ± 0.0073 | –
30 | IFVYPLFLLSTF [YEL053W-A C-terminal 12 aa] | 0.482 ± 0.051 | 0.335 ± 0.0099 | –
31 | IVTKMDLLSYLA [CYS4 C-terminal 12 aa] | 0.674 ± 0.013 | 0.478 ± 0.0082 | –
32 | SQLLNLLQDLDT [ENV7 C-terminal 12 aa] | 0.696 ± 0.02 | 0.722 ± 0.011 | –
33 | PNAIRGIKAKKA [COX7 C-terminal 12 aa] | 0.723 ± 0.011 | 0.675 ± 0.046 | –
34 | ALNDIAKASYIY [CTK3 C-terminal 12 aa] | 0.677 ± 0.034 | 0.648 ± 0.016 | –
35 | GIHPPEPIAAAA [KTI11 C-terminal 12 aa] | 0.3 ± 0.031 | 0.357 ± 0.017 | –
36 | DGPGLNNFGITL [BMT2 C-terminal 12 aa] | 0.6975 ± 0.00032 | 0.699 ± 0.035 | –
37 | VFKSKCKKIYIG [DGR1 C-terminal 12 aa] | 0.7125 ± 0.0067 | 0.457 ± 0.04 | –
38 | LLERLSILDRLD [APS2 C-terminal 12 aa] | 0.669 ± 0.019 | 0.69 ± 0.013 | –
39 | AVIGVYGEGQFI [ATG33 C-terminal 12 aa] | 0.6986 ± 0.0067 | 0.693 ± 0.049 | –
40 | LPPEGKPKGKDD [TAZ1 C-terminal 12 aa] | 0.701 ± 0.018 | 0.661 ± 0.018 | –

Row | Sequence | protein stability index (Saccharomyces cerevisiae [1]; [4]) | protein stability index (Saccharomyces cerevisiae [1]; genetic background: wild type) | also measured
41 | SSNFASNIFSLF [YBR089W C-terminal 12 aa] | 0.7346 ± 0.0049 | 0.448 ± 0.01 | –
42 | FVLSISFRQEQT [YER172C-A C-terminal 12 aa] | 0.577 ± 0.042 | 0.591 ± 0.025 | –
43 | LYKPSVWDLFEY [FZF1 C-terminal 12 aa] | 0.716 ± 0.016 | 0.6818 ± 0.0023 | –
44 | TTDNVTVMVVFL [PTC1 C-terminal 12 aa] | 0.489 ± 0.0077 | 0.5071 ± 0.0035 | –
45 | ATCGSSTYFARK [MCO8 C-terminal 12 aa] | 0.6938 ± 0.0026 | 0.746 ± 0.054 | –
46 | FLILVFVMKKNH [YDR018C C-terminal 12 aa] | 0.287 ± 0.0071 | 0.269 ± 0.017 | –
47 | DEKVKKMVENLQ [TRS23 C-terminal 12 aa] | 0.7295 ± 0.0065 | 0.738 ± 0.077 | –
48 | WEHLHSGFSKNK [ELG1 C-terminal 12 aa] | 0.723 ± 0.012 | 0.716 ± 0.019 | –
49 | IAEGKSVGIIGA [HXK2 C-terminal 12 aa] | 0.694 ± 0.022 | 0.682 ± 0.018 | –
50 | ASREREKRRQSE [VAN1 C-terminal 12 aa] | 0.724 ± 0.0075 | 0.76362 ± 0.00071 | –
51 | DSATLVNVHIKR [SPR3 C-terminal 12 aa] | 0.7064 ± 0.0062 | 0.7269 ± 0.0019 | –
52 | QQSESLPQQTTA [PIL1 C-terminal 12 aa] | 0.7046 ± 0.0038 | 0.737 ± 0.049 | –
53 | SSVKNSVEMTDF [TDA11 C-terminal 12 aa] | 0.7099 ± 0.0049 | 0.698 ± 0.012 | –
54 | VENEDEPLFIER [INP51 C-terminal 12 aa] | 0.708 ± 0.0089 | 0.683 ± 0.0088 | –
55 | ILFSFFCNLVAK [VTC4 C-terminal 12 aa] | 0.524 ± 0.011 | 0.4997 ± 0.0011 | –
56 | SRGHDLASEYPL [ERS1 C-terminal 12 aa] | 0.706 ± 0.015 | 0.682 ± 0.0085 | –
57 | KHKNILLFNNNT [YAL068W-A C-terminal 12 aa] | 0.699 ± 0.011 | 0.686 ± 0.017 | –
58 | LFYVMTMTKFLF [PHM6 C-terminal 12 aa] | 0.5199 ± 0.0025 | 0.364 ± 0.0018 | –
59 | SFFVCVRVFGCC | – | – | protein stability index (Saccharomyces cerevisiae [2]; [5]): 0.315 ± 0.012; protein stability index (Saccharomyces cerevisiae [2]; [6]): 0.369 ± 0.011; protein stability index (Saccharomyces cerevisiae [2]; [7]): 0.255 ± 0.042; protein stability index (Saccharomyces cerevisiae [2]; [8]): 0.44 ± 0.0095; protein stability index (Saccharomyces cerevisiae [2]; [9]): 0.2075 ± 0.0016; protein stability index (Saccharomyces cerevisiae [2]; [10]): 0.239 ± 0.018; protein stability index (Saccharomyces cerevisiae [2]; [11]): 0.398 ± 0.011; protein stability index (Saccharomyces cerevisiae [3]): 0.337 ± 0.021
60 | LFFGFFLIYFLG | – | – | protein stability index (Saccharomyces cerevisiae [2]; [5]): 0.428 ± 0.048; protein stability index (Saccharomyces cerevisiae [2]; [6]): 0.4839 ± 0.0013; protein stability index (Saccharomyces cerevisiae [2]; [7]): 0.384 ± 0.034; protein stability index (Saccharomyces cerevisiae [2]; [8]): 0.495 ± 0.0074; protein stability index (Saccharomyces cerevisiae [2]; [9]): 0.266 ± 0.014; protein stability index (Saccharomyces cerevisiae [2]; [10]): 0.278 ± 0.018; protein stability index (Saccharomyces cerevisiae [2]; [11]): 0.424 ± 0.032; protein stability index (Saccharomyces cerevisiae [3]): 0.353 ± 0.044
